For one substance, stoichiometry N results are on record in article PMC2950840.

One may read the stoichiometry N as the number of molecules, sites or subunits per partner or assembly.

For this assay, the target named is SARS-CoV 3C-like protease (3CL^pro) (SARS-CoV (strain CUHK-Su10)) (UniProt P0C6X7). The experiment in a line: SEC; […] (20 mM Tris, 20 mM NaCl, pH 7.8); […].

With “SARS-CoV 3C-like protease (3CL^pro) (from UniProt P0C6X7 3241-3546) (enzyme)”, the stoichiometry N worked out at 2.
